Measured values from publication PMC9978635.

What was measured:
Test in all cases: BioID2 proximity biotinylation, streptavidin purification, TMT quantitative LC-MS
Conditions in all cases: untreated (-K18) neurons, 3 wk; read off a plot
TAGLN3 = biological target: TAGLN3
SRPR = biological target: SRPR
CELF2 = biological target: CELF2
[1] = biological target: NADH:ubiquinone oxidoreductase core subunit S8 (UniProt O00217)
Chain of UniProt O00217 (O00217 35-210): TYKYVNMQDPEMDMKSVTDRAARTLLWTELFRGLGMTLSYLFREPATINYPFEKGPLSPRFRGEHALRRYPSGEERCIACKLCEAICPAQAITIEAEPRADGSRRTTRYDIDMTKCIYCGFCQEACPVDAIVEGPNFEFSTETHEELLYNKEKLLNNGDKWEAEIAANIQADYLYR

0N4R tau[WT]-BioID2 (from UniProt P10636-6) P301L
enrichment (log2 abundance ratio) (TAGLN3): 2 | other: log2 abundance ratio (mutant/WT) (log2 abundance ratio) (TAGLN3): 0.95 | enrichment (log2 abundance ratio) (SRPR): 0.65 | other: log2 abundance ratio (mutant/WT) (log2 abundance ratio) (SRPR): 2 | enrichment (log2 abundance ratio) (CELF2): 1.2 | other: log2 abundance ratio (mutant/WT) (log2 abundance ratio) (CELF2): 2.1 | enrichment (log2 abundance ratio) [1]: 2.5 | other: log2 abundance ratio (mutant/WT) (log2 abundance ratio) [1]: 2
